Assays:
[1] = molecular target: lysate of porcine coronavirus; assay: ELISA Test 2, coated viral lysate, antibody 1:4000, secondary antibody 1:2000
[2] = molecular target: lysate of porcine coronavirus; assay: ELISA Test 1, coated viral lysate, antibody 1:4000, Group 1
[3] = molecular target: lysate of porcine pseudorabies virus; assay: as above
[4] = molecular target: lysate of porcine coronavirus; assay: ELISA Test 1, coated viral lysate, antibody 1:4000, Group 2
[5] = molecular target: lysate of porcine pseudorabies virus; assay: as above

B1: anti-PRRSV antibody 572 (antibody, V domains shown)
VH: EVQLQQSGPELVKPGASVKISCKASGFSFTGYYMHWVKQSHVKSLEWIGRIYPYTDSTIYNQNFKDKAGLTVDKSSSTAYMELHSLTSEDSAVYYCARDNGYADYAMDYWGQGTSVTVSS
VL: DIVMTQSPSSLSAFLGDSITITCHASQNIHVWLSWYQQKPGNIPKLLIYKASNLHTGVPSRFSGSGSGTGFTLTISSLQPEDIGTYYCQQGQSYPLTFGAGTKLELK
Q: Which results are given for B1?
A: OD450 [1]: 0.782 OD450; OD450 [2]: 0.322 OD450; OD450 [3]: 0.091 OD450; OD450 [4]: 0.312 OD450; OD450 [5]: 0.1 OD450

Source: US20230295276A1
